Assay results: PMC10936676, “ATG9B is a tissue-specific homotrimeric lipid scramblase that can compensate for ATG9A” (Autophagy, 2023)

Molecular target: the molecule itself
Test: cryo-EM structure; single-particle cryo-EM of purified ATG9B in LMNG-CHS micelles; 20 mM Tris-HCl, 200 mM NaCl, pH 8.5; reconstructions with C3 and without symmetry

B1: 3×FLAG-6×His-TEV-ATG9B (full-length human ATG9B), purified from Expi293 cells (natural protein, UniProt Q674R7-1 1-924, looked up)
chain: MVSRMGWGGRRRRLGRWGDLGPGSVPLLPMPLPPPPPPSCRGPGGGRISIFSLSPAPHTRSSPSSFSPPTAGPPCSVLQGTGASQSCHSALPIPATPPTQAQPAMTPASASPSWGSHSTPPLAPATPTPSQQCPQDSPGLRVGPLIPEQDYERLEDCDPEGSQDSPIHGEEQQPLLHVPEGLRGSWHHIQNLDSFFTKIYSYHQRNGFACILLEDVFQLGQFIFIVTFTTFLLRCVDYNVLFANQPSNHTRPGPFHSKVTLSDAILPSAQCAERIRSSPLLVLLLVLAAGFWLVQLLRSVCNLFSYWDIQVFYREALHIPPEELSSVPWAEVQSRLLALQRSGGLCVQPRPLTELDIHHRILRYTNYQVALANKGLLPARCPLPWGGSAAFLSRGLALNVDLLLFRGPFSLFRGGWELPHAYKRSDQRGALAARWGRTVLLLAALNLALSPLVLAWQVLHVFYSHVELLRREPGALGARGWSRLARLQLRHFNELPHELRARLARAYRPAAAFLRTAAPPAPLRTLLARQLVFFAGALFAALLVLTVYDEDVLAVEHVLTAMTALGVTATVARSFIPEEQCQGRAPQLLLQTALAHMHYLPEEPGPGGRDRAYRQMAQLLQYRAVSLLEELLSPLLTPLFLLFWFRPRALEIIDFFHHFTVDVAGVGDICSFALMDVKRHGHPQWLSAGQTEASLSQRAEDGKTELSLMRFSLAHPLWRPPGHSSKFLGHLWGRVQQDAAAWGATSARGPSTPGVLSNCTSPLPEAFLANLFVHPLLPPRDLSPTAPCPAAATASLLASISRIAQDPSSVSPGGTGGQKLAQLPELASAEMSLHVIYLHQLHQQQQQQEPWGEAAASILSRPCSSPSQPPSPDEEKPSWSSDGSSPASSPRQQWGTQKARNLFPGGFQVTTDTQKEPDRASCTD
notes: ATG9B, human, canonical isoform 1 (Q674R7-1), full length; residues 191-674 visible in the cryo-EM map; A TEV site lies between the 6×His tag and ATG9B; no cleavage is described; Eluted from the anti-FLAG resin with 3×FLAG peptide; In LMNG-CHS micelles; also called ATG9B homotrimer; pcDNA3.1-3×FLAG-6×His-TEV-ATG9B; source: Expi293, transiently transfected, extracted into detergent micelles, …
stoichiometry N: 3
